The source of these data is patent publication US20150152398, “Endoribonuclease and Methods of Use Thereof” (The Regents of the University of California, published 2015).

Series [1] deals with T1, TtCas6A (TTHA0078, Cas6) (Thermus thermophilus HB8).
T1 chain: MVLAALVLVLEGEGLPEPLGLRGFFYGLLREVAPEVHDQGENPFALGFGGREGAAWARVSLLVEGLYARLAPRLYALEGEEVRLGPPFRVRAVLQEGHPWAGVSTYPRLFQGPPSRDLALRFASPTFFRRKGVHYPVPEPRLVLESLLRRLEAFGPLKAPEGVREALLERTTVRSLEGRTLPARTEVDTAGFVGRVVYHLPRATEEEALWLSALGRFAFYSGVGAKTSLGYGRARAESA
The series can be described thus: EMSA; Kd in FIG. 25D only. The settings on record: chain copies: 2 stated (dimer in solution); hairpin. Background: In EMSA bound probe runs differently from free probe, usually more slowly.

The next series deals with T2, TtCas6A H37A (Thermus thermophilus HB8, H37A).
T2 chain: T1 chain with H37A
The series can be described thus: cleavage_in_vitro; almost inactive; rate enhanced about 360-fold with 500 mM imidazole. To be noted: chain copies: 2 inferred; hairpin. The text has this:
(§1) Sites of cleavage are indicated with blue arrows. TtCas6e (TTHB192) cleaves repeat R2, while TtCas6A (TTHA0078) and TtCas6B (TTHB231) both cleave repeats R1 and R3. (B) Cleavage product binding affinities of TtCas6A and TtCas6B enzymes. Maltose binding protein (MBP)-fused TtCas6A or TtCas6B were bound to in 5′-radiolabelled, vitro transcribed R1 and R3 RNAs. Bound and unbound fractions were resolved by electrophoresis on a native polyacrylamide gel and visualized by phosphorimaging. The data for these and all subsequent binding assays were fit with standard binding isotherms (solid line). Error bars on each data point denote standard error of the mean (SEM) from three independent experiments. (C) Experiments to confirm single turnover. RNA cleavage assays were carried out at indicated protein:RNA ratios. RNA cleavage was monitored using denaturing polyacrylamide gel electrophoresis. […]
(§2) To shed light on the catalytic mechanism of TtCas6A and TtCas6B, we performed cleavage assays using wild type proteins as well as active site mutants TtCas6A H37A and TtCas6B H42A using repeat R1 as a substrate (FIG. 2C). The first order rate constant determined under single-turnover conditions for wild type TtCas6A (3.2 min⁻¹) and TtCas6B (3.7 min⁻¹) are in good agreement with first order rate constants previously determined for PaCas6f and TtCas6e. […]

For the next series, the target named is T3, TtCas6B H42A (Thermus thermophilus HB8, H42A).
T3 chain: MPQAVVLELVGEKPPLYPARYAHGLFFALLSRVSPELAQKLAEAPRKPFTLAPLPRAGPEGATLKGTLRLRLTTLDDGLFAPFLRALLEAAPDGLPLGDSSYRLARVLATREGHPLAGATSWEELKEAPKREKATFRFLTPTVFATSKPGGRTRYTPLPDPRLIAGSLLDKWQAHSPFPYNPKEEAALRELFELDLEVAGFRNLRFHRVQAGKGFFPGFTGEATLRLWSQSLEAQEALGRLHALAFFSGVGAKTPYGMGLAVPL
The series can be described thus: cleavage_in_vitro; repeat R1. To be noted: chain copies: 2 inferred; hairpin.
Excerpt: as §1, with “FIG. 22 illustrates that TtCas6A and TtCas6B both cleave repeats R1 and R3 and retain their cleaved products. (A) Sequences and predicted secondary structures of T. thermophilus CRISPR repeats. Sites” for “Sites”, “Error bars on each data point denote standard error of the mean (SEM) from three independent experiments. (C) Experiments to confirm single turnover. RNA cleavage assays were carried out at indicated protein:RNA ratios.” left out
as §2

Series [2] addresses T1, TtCas6A (TTHA0078, Cas6). In words: 5' truncation series, FIG. 5. The settings on record: chain copies: 2 stated (dimer in solution); hairpin.
Another series deals with T4, TtCas6B (TTHB231, Cas6) (Thermus thermophilus HB8).
T4 chain: T3 chain with A42H
In words: structure; crystal structure of R3 product complex, 2:2. The settings on record: chain copies: 2 stated (dimer in solution); label: 5'-32P (EMSA); hairpin.

For series [3], the target named is T1, TtCas6A (TTHA0078, Cas6). In words: EMSA; deletion of nt 1-8 had little effect on affinity. To be noted: chain copies: 2 stated (dimer in solution); hairpin.
Series [4] addresses T1, TtCas6A (TTHA0078, Cas6). In words: structure; crystal structure of cleaved R1 product complex, 2:1 in crystal. The settings on record: chain copies: 2 stated (dimer in solution); label: 5'-32P (EMSA); hairpin. The text has this:
(§3) To determine how TtCas6A and TtCas6B bind and cleave their RNA substrates, we solved crystal structures of these proteins both alone and in complexes with their cognate RNAs (FIG. 23A, FIG. 30). For TtCas6A, we obtained a structure of the enzyme bound to a substrate mimic based on the R1 repeat sequence, consisting of the R1 stem-loop flanked by two additional nucleotides on either end of the stem. Cleavage of the substrate mimic RNA was prevented by introducing a 2′-deoxyribonucleotide at the G28 position, thereby removing the 2′-hydroxyl nucleophile required for the cleavage reaction. In addition to the substrate mimic complex, a crystal structure of a complex of TtCas6A and a cleaved RNA product was obtained when full-length R1 repeat was bound to wild-type TtCas6A and allowed to undergo cleavage during subsequent complex purification and crystallization. Finally, we determined the crystal structure of the TtCas6A H37A mutant, lacking a critical active site residue, in the absence of bound RNA. For TtCas6B, we determined crystal structures of the wild-type enzyme alone and in complex with a product of the R3 repeat cleavage reaction.

In series [5] the target is T1, TtCas6A (TTHA0078, Cas6). In words: structure; crystal structure of substrate mimic complex, 2:1 in crystal. The settings on record: chain copies: 2 stated (dimer in solution); hairpin.
Excerpt: as §3

Where a chain is given by its changes, count along the chain named.

In the case of GAGCCCCGUAAGGGGAU (ssRNA) [R1 deletion of nt 1-13], the “fold increase in Kd relative to full R1” value in the series with TtCas6A (TTHA0078, Cas6) [1] is ~900 fold higher Kd than full R1.

As for GUUGCAAGGGAUUGAGCCCCGUAAGGGGAU (ssRNA) [R1 nt 1-30], the values for the activity with TtCas6A H37A and with TtCas6B H42A were about 17000 fold cleavage defect and about 300 fold cleavage defect, respectively.

For the molecule AGGGAUUGAGCCCCGUAAGGGGA (ssRNA) [R1 nt 7-29], the binding signal in the series with TtCas6A (TTHA0078, Cas6) [2] was 2.3 fold stronger than nt 8-29.

With GUUGCAAACCUCGUUAGCCUCGUAGAGGAUUGAAAC (ssRNA) [R3 repeat RNA (Tt_R2 in Example 1)], the binding result in the series with TtCas6B (TTHB231, Cas6) was “binds”.

Consider GGAUUGAGCCCCGUAAGGGGAU (ssRNA) [R1 deletion of nt 1-8], for which, in the series with TtCas6A (TTHA0078, Cas6) [3], the binding result is “binds”.

Take GUUGCAAGGGAUUGAGCCCCGUAAGGGGAUUGCGAC (ssRNA) [R1 repeat RNA (Tt_R1)]: the binding result with TtCas6A (TTHA0078, Cas6) [4] is “binds”.

Consider AGCCCCGUAAGGGGAU (ssRNA, 2'-deoxy at G28) [R1 substrate mimic (nt 15-30, 2'-deoxy G28)], for which the binding result with TtCas6A (TTHA0078, Cas6) [5] was “binds”.
